The results in this text go back to the RNAGym collection of RNA variant scans (doi:10.1021/acssynbio.7b00057).

B1: Pistol ribozyme (parent)
chain: GGGUCGUUGUUCCAUAAUCGCGUGGAUAUGGCACGCAAGUUUCUACCGGGCACCGUAAAUGUCCGACUGGAGCCGUUCGGGCGGCUAUAAACAGACCUCAGGCCCGAAGCGUGGCGGCACCUGCCGCCGGUGGUAAAAAAGAUCGGAAGAGCACACGUCU

The variants in this series derive from B1. The series can be described thus: aptazyme ON/OFF ratio, guanine; higher = stronger switching; co-transcriptional cleavage with and without guanine.
GGGUCGUAGCUGGAUAAUCGCGUGGAUAUGGCACGCAAGUUUCUACCGGGCACCGUAAAUGUCCGACUGGAGCCGUUCGGGCGGCUAUAAACAGACCUCAGGCCCGAAGCGUGGCGGCACCUGCCGCCGGUGGUAAAAAAGAUCGGAAGAGCACACGUCU [U8A U10C C12G C13G]: the “aptazyme ON/OFF ratio” value came to 1.45. In the case of GGGUCGGCUAGAAAUAAUCGCGUGGAUAUGGCACGCAAGUUUCUACCGGGCACCGUAAAUGUCCGACUGGAGCCGUUCGGGCGGCUAUAAACAGACCUCAGGCCCGAAGCGUGGCGGCACCUGCCGCCGGUGGUAAAAAAGAUCGGAAGAGCACACGUCU [U7G U8C G9U U10A U11G C12A C13A], the “aptazyme ON/OFF ratio” value came out at 1.1. Take GGGUCGAGAGCAAAUAAUCGCGUGGAUAUGGCACGCAAGUUUCUACCGGGCACCGUAAAUGUCCGACUGGAGCCGUUCGGGCGGCUAUAAACAGACCUCAGGCCCGAAGCGUGGCGGCACCUGCCGCCGGUGGUAAAAAAGAUCGGAAGAGCACACGUCU [U7A U8G G9A U10G U11C C12A C13A]: the “aptazyme ON/OFF ratio” value was 1.2.

For the variant GGGUCGUACACGUAUAAUCGCGUGGAUAUGGCACGCAAGUUUCUACCGGGCACCGUAAAUGUCCGACUGGAGCCGUUCGGGCGGCUAUAAACAGACCUCAGGCCCGAAGCGUGGCGGCACCUGCCGCCGGUGGUAAAAAAGAUCGGAAGAGCACACGUCU [U8A G9C U10A U11C C12G C13U], the “aptazyme ON/OFF ratio” value was found to be 1.07. For GGGUCGCUUACAAAUAAUCGCGUGGAUAUGGCACGCAAGUUUCUACCGGGCACCGUAAAUGUCCGACUGGAGCCGUUCGGGCGGCUAUAAACAGACCUCAGGCCCGAAGCGUGGCGGCACCUGCCGCCGGUGGUAAAAAAGAUCGGAAGAGCACACGUCU [U7C G9U U10A U11C C12A C13A] the value was 1.22. The figure for GGGUCGCGGAGCCAUAAUCGCGUGGAUAUGGCACGCAAGUUUCUACCGGGCACCGUAAAUGUCCGACUGGAGCCGUUCGGGCGGCUAUAAACAGACCUCAGGCCCGAAGCGUGGCGGCACCUGCCGCCGGUGGUAAAAAAGAUCGGAAGAGCACACGUCU [U7C U8G U10A U11G] is 1.35; for GGGUCGAAUAACCAUAAUCGCGUGGAUAUGGCACGCAAGUUUCUACCGGGCACCGUAAAUGUCCGACUGGAGCCGUUCGGGCGGCUAUAAACAGACCUCAGGCCCGAAGCGUGGCGGCACCUGCCGCCGGUGGUAAAAAAGAUCGGAAGAGCACACGUCU [U7A U8A G9U U10A U11A] it is 1.44; for GGGUCGUCUCUUGAUAAUCGCGUGGAUAUGGCACGCAAGUUUCUACCGGGCACCGUAAAUGUCCGACUGGAGCCGUUCGGGCGGCUAUAAACAGACCUCAGGCCCGAAGCGUGGCGGCACCUGCCGCCGGUGGUAAAAAAGAUCGGAAGAGCACACGUCU [U8C G9U U10C C12U C13G] it is 1.07. The figure for GGGUCGAAACCAUAUAAUCGCGUGGAUAUGGCACGCAAGUUUCUACCGGGCACCGUAAAUGUCCGACUGGAGCCGUUCGGGCGGCUAUAAACAGACCUCAGGCCCGAAGCGUGGCGGCACCUGCCGCCGGUGGUAAAAAAGAUCGGAAGAGCACACGUCU [U7A U8A G9A U10C U11C C12A C13U] is 1.07; for GGGUCGUCGCGUCAUAAUCGCGUGGAUAUGGCACGCAAGUUUCUACCGGGCACCGUAAAUGUCCGACUGGAGCCGUUCGGGCGGCUAUAAACAGACCUCAGGCCCGAAGCGUGGCGGCACCUGCCGCCGGUGGUAAAAAAGAUCGGAAGAGCACACGUCU [U8C U10C U11G C12U] it is 1.39; for GGGUCGAGGUAAGAUAAUCGCGUGGAUAUGGCACGCAAGUUUCUACCGGGCACCGUAAAUGUCCGACUGGAGCCGUUCGGGCGGCUAUAAACAGACCUCAGGCCCGAAGCGUGGCGGCACCUGCCGCCGGUGGUAAAAAAGAUCGGAAGAGCACACGUCU [U7A U8G U11A C12A C13G] it is 1.3. GGGUCGUGUCGGUAUAAUCGCGUGGAUAUGGCACGCAAGUUUCUACCGGGCACCGUAAAUGUCCGACUGGAGCCGUUCGGGCGGCUAUAAACAGACCUCAGGCCCGAAGCGUGGCGGCACCUGCCGCCGGUGGUAAAAAAGAUCGGAAGAGCACACGUCU [U8G G9U U10C U11G C12G C13U]: the “aptazyme ON/OFF ratio” value came out at 1.08. For GGGUCGGACCCCCAUAAUCGCGUGGAUAUGGCACGCAAGUUUCUACCGGGCACCGUAAAUGUCCGACUGGAGCCGUUCGGGCGGCUAUAAACAGACCUCAGGCCCGAAGCGUGGCGGCACCUGCCGCCGGUGGUAAAAAAGAUCGGAAGAGCACACGUCU [U7G U8A G9C U10C U11C] the value was 1.01; for GGGUCGGUGGCUUAUAAUCGCGUGGAUAUGGCACGCAAGUUUCUACCGGGCACCGUAAAUGUCCGACUGGAGCCGUUCGGGCGGCUAUAAACAGACCUCAGGCCCGAAGCGUGGCGGCACCUGCCGCCGGUGGUAAAAAAGAUCGGAAGAGCACACGUCU [U7G U10G U11C C12U C13U], 1.25.

GGGUCGGGCAGGCAUAAUCGCGUGGAUAUGGCACGCAAGUUUCUACCGGGCACCGUAAAUGUCCGACUGGAGCCGUUCGGGCGGCUAUAAACAGACCUCAGGCCCGAAGCGUGGCGGCACCUGCCGCCGGUGGUAAAAAAGAUCGGAAGAGCACACGUCU [U7G U8G G9C U10A U11G C12G]: the “aptazyme ON/OFF ratio” value came to 1.08. On to GGGUCGGGGUAACAUAAUCGCGUGGAUAUGGCACGCAAGUUUCUACCGGGCACCGUAAAUGUCCGACUGGAGCCGUUCGGGCGGCUAUAAACAGACCUCAGGCCCGAAGCGUGGCGGCACCUGCCGCCGGUGGUAAAAAAGAUCGGAAGAGCACACGUCU [U7G U8G U11A C12A], for which the “aptazyme ON/OFF ratio” value came to 1.36. Regarding GGGUCGACACAAAAUAAUCGCGUGGAUAUGGCACGCAAGUUUCUACCGGGCACCGUAAAUGUCCGACUGGAGCCGUUCGGGCGGCUAUAAACAGACCUCAGGCCCGAAGCGUGGCGGCACCUGCCGCCGGUGGUAAAAAAGAUCGGAAGAGCACACGUCU [U7A U8C G9A U10C U11A C12A C13A], the “aptazyme ON/OFF ratio” value was 1.13.

In the case of GGGUCGCACGAGUAUAAUCGCGUGGAUAUGGCACGCAAGUUUCUACCGGGCACCGUAAAUGUCCGACUGGAGCCGUUCGGGCGGCUAUAAACAGACCUCAGGCCCGAAGCGUGGCGGCACCUGCCGCCGGUGGUAAAAAAGAUCGGAAGAGCACACGUCU [U7C U8A G9C U10G U11A C12G C13U], the “aptazyme ON/OFF ratio” value turned out to be 1.13.
